Values joined by “and” are separate entries in the source; they are usually repeats but may differ in a detail not shown here. Identical values can stand only once. Like-named read-outs stand apart in the source and are kept apart here.

Assay [1] deals with Bovine recombinant PrP (bovine). The assay is described as follows: direct ELISA, coated denatured rPrP 1 ng/assay. In general terms: In an ELISA, binding on a coated surface is turned into a signal by an enzyme label.
Assay [2] concerns the target Deer recombinant PrP (deer). The assay is described as follows: direct ELISA, coated denatured rPrP 1 ng/assay.
Assay [3] addresses Human recombinant PrP (human). Nature of the assay: direct ELISA, coated denatured rPrP 1 ng/assay.
In assay [4] the target is Mouse recombinant PrP (mouse). Nature of the assay: direct ELISA, coated denatured rPrP 1 ng/assay.
The target in assay [5] is Sheep recombinant PrP (sheep). Nature of the assay: direct ELISA, coated denatured rPrP 1 ng/assay.
The target of assay [6] is Bovine recombinant PrP (bovine). The assay is described as follows: direct ELISA, coated denatured rPrP 0.1 ng/assay.
Assay [7] addresses Deer recombinant PrP (deer). Nature of the assay: direct ELISA, coated denatured rPrP 0.1 ng/assay.
The target of assay [8] is Human recombinant PrP (human). Nature of the assay: direct ELISA, coated denatured rPrP 0.1 ng/assay.
The target of assay [9] is Mouse recombinant PrP (mouse). The assay is described as follows: direct ELISA, coated denatured rPrP 0.1 ng/assay.
Assay [10] deals with Sheep recombinant PrP (sheep). Nature of the assay: direct ELISA, coated denatured rPrP 0.1 ng/assay.
Assay [11] concerns the target Mouse BH PrP^Sc (mouse). Nature of the assay: direct ELISA, coated denatured mouse BH PrP^Sc 1 mg BH/assay.
The target in assay [12] is Mouse BH PrP^Sc (mouse). The assay is described as follows: direct ELISA, coated denatured mouse BH PrP^Sc 0.1 mg BH/assay.
For assay [13], the target named is Syrian hamster PrP^Sc (scrapie-infected SHa brain homogenate) (Syrian hamster).
In assay [14] the target is Syrian hamster PrP^C (normal SHa brain homogenate) (Syrian hamster). The assay is described as follows: sandwich ELISA, capture 3F4; normal SHa BH, PK 0 ug/mL, NaOH-denatured.
For assay [15] the target is unchanged. The assay is described as follows: sandwich ELISA, capture 3F4; normal SHa BH, PK 5 ug/mL, NaOH-denatured.
The target is the same in assay [16]. The assay is described as follows: sandwich ELISA, capture 3F4; normal SHa BH, PK 10 ug/mL, NaOH-denatured.
For assay [17] the target is unchanged. The assay is described as follows: sandwich ELISA, capture 3F4; normal SHa BH, PK 20 ug/mL, NaOH-denatured.
Assay [18] has the same target. Nature of the assay: sandwich ELISA, capture 3F4; normal SHa BH, PK 50 ug/mL, NaOH-denatured.
Assay [19] has the same target. Nature of the assay: sandwich ELISA, capture 3F4; normal SHa BH, PK 100 ug/mL, NaOH-denatured.
For assay [20] the target is unchanged. Nature of the assay: sandwich ELISA, capture 3F4; normal SHa BH, PK 25 ug/mL, GdnHCl-denatured.
For assay [21] the target is unchanged. Nature of the assay: sandwich ELISA, capture POM2; normal SHa BH, PK 25 ug/mL, GdnHCl-denatured.
The target is the same in assay [22]. Nature of the assay: sandwich ELISA, capture 3F4; normal SHa BH, trypsin 0 ug/mL, NaOH-denatured.
The target is the same in assay [23]. The assay is described as follows: sandwich ELISA, capture 3F4; normal SHa BH, trypsin 5 ug/mL, NaOH-denatured.
The target is the same in assay [24]. Nature of the assay: sandwich ELISA, capture 3F4; normal SHa BH, trypsin 10 ug/mL, NaOH-denatured.
Assay [25] has the same target. The assay is described as follows: sandwich ELISA, capture 3F4; normal SHa BH, trypsin 20 ug/mL, NaOH-denatured.
Assay [26] has the same target. Nature of the assay: sandwich ELISA, capture 3F4; normal SHa BH, trypsin 50 ug/mL, NaOH-denatured.
Assay [27] has as its target Syrian hamster PrP^Sc (scrapie-infected SHa brain homogenate) (Syrian hamster). Nature of the assay: sandwich ELISA, capture 3F4; infectious SHa BH, PK 25 ug/mL, GdnHCl-denatured.
In assay [28] the target is Syrian hamster PrP^C (normal SHa brain homogenate) (Syrian hamster). The assay is described as follows: sandwich ELISA, capture 3F4; normal SHa BH, trypsin 100 ug/mL, NaOH-denatured.
Assay [29] has the same target. The assay is described as follows: sandwich ELISA, capture 3F4; normal SHa BH, trypsin 25 ug/mL, GdnHCl-denatured.
The target in assay [30] is Syrian hamster PrP^Sc (scrapie-infected SHa brain homogenate) (Syrian hamster). Nature of the assay: sandwich ELISA, capture POM2; infectious SHa BH, PK 25 ug/mL, GdnHCl-denatured.
For assay [31], the target named is Syrian hamster PrP^C (normal SHa brain homogenate) (Syrian hamster). The assay is described as follows: sandwich ELISA, capture POM2; normal SHa BH, trypsin 25 ug/mL, GdnHCl-denatured.
Assay [32] addresses Syrian hamster PrP^Sc (scrapie-infected SHa brain homogenate) (Syrian hamster). Nature of the assay: sandwich ELISA, capture 3F4; scrapie-infected SHa BH, PK 0 ug/mL, NaOH-denatured.
For assay [33] the target is unchanged. The assay is described as follows: sandwich ELISA, capture 3F4; scrapie-infected SHa BH, PK 5 ug/mL, NaOH-denatured.
In assay [34] the target is Human PrP^C (normal human plasma; normal human brain homogenate) (human).
Assay [35] addresses Human PrP^Sc of vCJD brain homogenate (vCJD MM, White strain) (human).
Assay [36] has the same target. The assay is described as follows: sandwich ELISA, capture SAF-32; vCJD human BH, PK 25 ug/mL, un-denatured.
Assay [37] deals with Human PrP^C (normal human plasma; normal human brain homogenate) (human). The assay is described as follows: sandwich ELISA, capture SAF-32; normal human BH, PK 25 ug/mL, un-denatured.
Assay [38] deals with Human PrP^Sc of vCJD brain homogenate (vCJD MM, White strain) (human). The assay is described as follows: sandwich ELISA, capture SAF-32; vCJD human BH, trypsin 25 ug/mL, un-denatured.
In assay [39] the target is Human PrP^C (normal human plasma; normal human brain homogenate) (human). The assay is described as follows: sandwich ELISA, capture SAF-32; normal human BH, trypsin 25 ug/mL, un-denatured.
Assay [40] has as its target Human PrP^Sc of vCJD brain homogenate (vCJD MM, White strain) (human). The assay is described as follows: sandwich ELISA, capture SAF-32; vCJD human BH, PK 25 ug/mL, 4M GdnHCl-denatured.

Mouse anti Prion (SAF-61) (antibody): the RLU in assay [1] turned out to be 136 RLU; in assay [2], 190 RLU; in assay [3], 101 RLU; in [4], 464 RLU; in [5], 113 RLU; in [6], 67.6 RLU. The RLU in assay [7] stood at 150 RLU; in assay [8], 90.4 RLU; in [9] it was 142 RLU; in assay [10], 115 RLU; in the assay with Mouse BH PrP^Sc (mouse) [11] it was 579 RLU; with Mouse BH PrP^Sc (mouse) [12] it was 169 RLU.
On to Mouse anti Prion (SAF-32) (antibody), for which the RLU in assay [1] was determined as 2400 RLU; in [2], 2320 RLU; in assay [3], 1570 RLU; in [4], 73.3 RLU; in assay [5], 1440 RLU; in assay [6] it was 450 RLU. Further, the RLU in assay [7] was found to be 457 RLU; in assay [8], 285 RLU; in assay [9] it was 97.6 RLU; in assay [10] it was 294 RLU; with Mouse BH PrP^Sc (mouse) [11] it was 551 RLU; with Mouse BH PrP^Sc (mouse) [12], 176 RLU.
As for Mouse anti Prion (MAB5424) (antibody), the RLU is 827 RLU in [1]; 118 RLU in [2]; 67.6 RLU in assay [3]; 605 RLU in assay [4]; 899 RLU in assay [5]; 84.6 RLU in [6]. Moreover, the RLU was 104 RLU in assay [7]; 76.1 RLU in [8]; 90.1 RLU in assay [9]; 214 RLU in assay [10]; 601 RLU with Mouse BH PrP^Sc (mouse) [11]; 167 RLU with Mouse BH PrP^Sc (mouse) [12].
Consider mAb 6H4 (antibody), for which the RLU in assay [1] stood at 691 RLU; in assay [2], 222 RLU; in assay [3], 192 RLU; in assay [4], 332 RLU; in assay [5], 160 RLU; in assay [6], 89.1 RLU. Besides, the RLU in assay [7] came out at 92.4 RLU; in assay [8], 72.7 RLU; in [9], 104 RLU; in [10], 125 RLU; with Mouse BH PrP^Sc (mouse) [11], 610 RLU; with Mouse BH PrP^Sc (mouse) [12], 178 RLU.
Regarding HuM D18 (antibody), the RLU in assay [1] is 132 RLU; in [2], 121 RLU; in [3], 94.7 RLU; in [4], 1770 RLU; in assay [5], 186 RLU; in assay [6], 109 RLU. For the same substance, the RLU in [7] was determined as 134 RLU; in assay [8], 77.5 RLU; in [9], 366 RLU; in assay [10] it was 169 RLU; with Mouse BH PrP^Sc (mouse) [11] it was 2230 RLU; with Mouse BH PrP^Sc (mouse) [12], 376 RLU.
Mouse anti Prion (SAF-53) (antibody): the RLU in assay [1] was determined as 145 RLU; in [2], 263 RLU; in assay [3] it was 93.5 RLU; in assay [4], 612 RLU; in [5] it was 154 RLU; in assay [6], 76.6 RLU. The RLU in assay [7] stood at 144 RLU; in assay [8] it was 85.2 RLU; in assay [9], 70.8 RLU; in assay [10] it was 100 RLU; with Mouse BH PrP^Sc (mouse) [11], 667 RLU; with Mouse BH PrP^Sc (mouse) [12], 165 RLU.
As for HuM D13 (antibody), the RLU in [1] is 93.1 RLU; in assay [2], 130 RLU; in [3] it was 69.9 RLU; in assay [4], 294 RLU; in [5] it was 161 RLU; in assay [6], 75.1 RLU. For the same substance, the RLU in assay [7] was found to be 232 RLU; in assay [8] it was 89.5 RLU; in assay [9] it was 117 RLU; in assay [10], 179 RLU; with Mouse BH PrP^Sc (mouse) [11], 664 RLU; in the assay with Mouse BH PrP^Sc (mouse) [12] it was 239 RLU.
In the case of mAb to prion 7D9 (antibody), the RLU in [1] worked out at 961 RLU; in assay [2], 117 RLU; in assay [3] it was 66.1 RLU; in [4], 769 RLU; in assay [5], 993 RLU; in [6], 149 RLU. For the same substance, the RLU stood at 121 RLU in [7]; 81.4 RLU in assay [8]; 118 RLU in assay [9]; 230 RLU in assay [10]; 614 RLU in the assay with Mouse BH PrP^Sc (mouse) [11]; 159 RLU with Mouse BH PrP^Sc (mouse) [12].
POM17 antibody: the RLU is 254 RLU and 381 RLU in assay [13]; 1680 RLU in assay [14]; 11.4 RLU in assay [15]; 7.2 RLU in assay [16]; 5.5 RLU in assay [17]; 3.3 RLU in assay [18]. For the same substance, the RLU is 2.8 RLU in [19]; 1.7 RLU in [20]; 1.8 RLU in [21]; 1660 RLU in assay [22]; 8.5 RLU in assay [23]; 4.5 RLU in [24]. In addition, the RLU in assay [25] is 2.8 RLU; in assay [26], 2 RLU; in assay [27], 200 RLU; in assay [28], 2.6 RLU; in assay [29], 2 RLU; in assay [30], 68.4 RLU. The RLU in [31] came to 14.6 RLU; in assay [32] it was 3860 RLU; in assay [33], 2480 RLU.
Take monoclonal antibody 3F4: the RLU in [34] was 50.4 RLU and 18.1 RLU; in [35] it was 1650 RLU; in assay [36], 10 RLU; in assay [37] it was 7.7 RLU; in assay [38] it was 15.1 RLU; in assay [39], 6.1 RLU. In assay [40], this substance displayed an RLU of 226 RLU.
Take Mouse anti Prion (SAF-83) (antibody): the RLU in assay [1] amounted to 50.8 RLU; in assay [2] it was 125 RLU; in assay [3], 67 RLU; in [4], 2230 RLU; in assay [5], 115 RLU; in [6], 45.7 RLU. For the same substance, the RLU in assay [7] amounted to 122 RLU; in assay [8], 65.2 RLU; in assay [9] it was 181 RLU; in assay [10] it was 98.1 RLU; in the assay with Mouse BH PrP^Sc (mouse) [11], 1730 RLU; with Mouse BH PrP^Sc (mouse) [12], 274 RLU.
As for mAb to prion BDI115 (antibody), the RLU was 177 RLU in assay [1]; 160 RLU in assay [2]; 74.3 RLU in assay [3]; 86.7 RLU in assay [4]; 104 RLU in [5]; 59.1 RLU in assay [6]. For the same substance, the RLU in assay [7] was found to be 105 RLU; in assay [8], 48 RLU; in [9] it was 54.7 RLU; in assay [10] it was 108 RLU; in the assay with Mouse BH PrP^Sc (mouse) [11] it was 116 RLU; with Mouse BH PrP^Sc (mouse) [12], 119 RLU.

The record behind these values is patent US20100196934A1.
